# B1: RIPK4 (parent)
# chain: VIDLFDEQGLSALHLAAQGRHAQT
# Variants of: B1
# Experiment: protein stability index of a GFP-peptide fusion (GPS, HEK-293T) (PSI 1-6); higher = more stable
# Conditions: c terminus: a fixed tail appended
# 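Further: lentivirally expressed fusions sorted by FACS into six bins by GFP to DsRed ratio, PSI derived from sequencing read proportions per bin multiplied by bin number.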
row,Variant,protein stability index
1,PIDLFDEQGLSALHLAAQGRHAQT [V1P],3.72
2,HIDLFDEQGLSALHLAAQGRHAQT [V1H],3.45
3,EIDLFDEQGLSALHLAAQGRHAQT [V1E],4.09
4,WIDLFDEQGLSALHLAAQGRHAQT [V1W],2.76
5,TIDLFDEQGLSALHLAAQGRHAQT [V1T],3.82
6,YIDLFDEQGLSALHLAAQGRHAQT [V1Y],2.16
7,RIDLFDEQGLSALHLAAQGRHAQT [V1R],3.41
8,IIDLFDEQGLSALHLAAQGRHAQT [V1I],2.43
9,CIDLFDEQGLSALHLAAQGRHAQT [V1C],2.88
10,NIDLFDEQGLSALHLAAQGRHAQT [V1N],3.7
11,LIDLFDEQGLSALHLAAQGRHAQT [V1L],2.7
12,AIDLFDEQGLSALHLAAQGRHAQT [V1A],3.82
13,KIDLFDEQGLSALHLAAQGRHAQT [V1K],3.92
14,DIDLFDEQGLSALHLAAQGRHAQT [V1D],4.32
15,FIDLFDEQGLSALHLAAQGRHAQT [V1F],1.88
16,SIDLFDEQGLSALHLAAQGRHAQT [V1S],3.62
17,GIDLFDEQGLSALHLAAQGRHAQT [V1G],3.61
18,QIDLFDEQGLSALHLAAQGRHAQT [V1Q],4.09
19,MIDLFDEQGLSALHLAAQGRHAQT [V1M],3.37
20,VIDLFREQGLSALHLAAQGRHAQT [D6R],2.04
21,VIDLFSEQGLSALHLAAQGRHAQT [D6S],2.57
22,VIDLFWEQGLSALHLAAQGRHAQT [D6W],2.55
23,VIDLFVEQGLSALHLAAQGRHAQT [D6V],3.75
24,VIDLFNEQGLSALHLAAQGRHAQT [D6N],1.96

row,Variant,protein stability index
1,VIDLFKEQGLSALHLAAQGRHAQT [D6K],1.81
2,VIDLFTEQGLSALHLAAQGRHAQT [D6T],2.15
3,VIDLFCEQGLSALHLAAQGRHAQT [D6C],2.39
4,VIDLFEEQGLSALHLAAQGRHAQT [D6E],2.71
5,VIDLFQEQGLSALHLAAQGRHAQT [D6Q],2.13
6,VIDLFHEQGLSALHLAAQGRHAQT [D6H],2.06
7,VIDLFAEQGLSALHLAAQGRHAQT [D6A],1.91
8,VIDLFFEQGLSALHLAAQGRHAQT [D6F],2.33
9,VIDLFPEQGLSALHLAAQGRHAQT [D6P],3.13
10,VIDLFYEQGLSALHLAAQGRHAQT [D6Y],1.63
11,VIDLFMEQGLSALHLAAQGRHAQT [D6M],1.97
12,VIDLFIEQGLSALHLAAQGRHAQT [D6I],4.12
13,VIDLFGEQGLSALHLAAQGRHAQT [D6G],1.77
14,VCDLFDEQGLSALHLAAQGRHAQT [I2C],3.4
15,VEDLFDEQGLSALHLAAQGRHAQT [I2E],4.42
16,VADLFDEQGLSALHLAAQGRHAQT [I2A],3.92
17,VLDLFDEQGLSALHLAAQGRHAQT [I2L],2.25
18,VTDLFDEQGLSALHLAAQGRHAQT [I2T],3.64
19,VDDLFDEQGLSALHLAAQGRHAQT [I2D],4.21
20,VNDLFDEQGLSALHLAAQGRHAQT [I2N],3.79
21,VMDLFDEQGLSALHLAAQGRHAQT [I2M],3.26
22,VRDLFDEQGLSALHLAAQGRHAQT [I2R],3.24
23,VHDLFDEQGLSALHLAAQGRHAQT [I2H],4.22
24,VKDLFDEQGLSALHLAAQGRHAQT [I2K],3.89

row,Variant,protein stability index
1,VQDLFDEQGLSALHLAAQGRHAQT [I2Q],3.76
2,VVDLFDEQGLSALHLAAQGRHAQT [I2V],3.67
3,VGDLFDEQGLSALHLAAQGRHAQT [I2G],3.41
4,VSDLFDEQGLSALHLAAQGRHAQT [I2S],3.88
5,VPDLFDEQGLSALHLAAQGRHAQT [I2P],3.66
6,VWDLFDEQGLSALHLAAQGRHAQT [I2W],2.36
7,VYDLFDEQGLSALHLAAQGRHAQT [I2Y],2.97
8,VFDLFDEQGLSALHLAAQGRHAQT [I2F],2.42
9,VIDYFDEQGLSALHLAAQGRHAQT [L4Y],3.52
10,VIDMFDEQGLSALHLAAQGRHAQT [L4M],3.11
11,VIDQFDEQGLSALHLAAQGRHAQT [L4Q],3.98
12,VIDAFDEQGLSALHLAAQGRHAQT [L4A],3.72
13,VIDNFDEQGLSALHLAAQGRHAQT [L4N],3.12
14,VIDSFDEQGLSALHLAAQGRHAQT [L4S],3.94
15,VIDWFDEQGLSALHLAAQGRHAQT [L4W],2.85
16,VIDHFDEQGLSALHLAAQGRHAQT [L4H],3.81
17,VIDPFDEQGLSALHLAAQGRHAQT [L4P],3.73
18,VIDGFDEQGLSALHLAAQGRHAQT [L4G],3.89
19,VIDVFDEQGLSALHLAAQGRHAQT [L4V],3.26
20,VIDFFDEQGLSALHLAAQGRHAQT [L4F],2.66
21,VIDDFDEQGLSALHLAAQGRHAQT [L4D],4.18
22,VIDCFDEQGLSALHLAAQGRHAQT [L4C],2.76
23,VIDEFDEQGLSALHLAAQGRHAQT [L4E],4.29
24,VIDIFDEQGLSALHLAAQGRHAQT [L4I],2.86

row,Variant,protein stability index
1,VIDKFDEQGLSALHLAAQGRHAQT [L4K],3.92
2,VIDTFDEQGLSALHLAAQGRHAQT [L4T],3.79
3,VIDRFDEQGLSALHLAAQGRHAQT [L4R],3.34
4,VIDLFDGQGLSALHLAAQGRHAQT [E7G],2.01
5,VIDLFDAQGLSALHLAAQGRHAQT [E7A],2.23
6,VIDLFDVQGLSALHLAAQGRHAQT [E7V],2.32
7,VIDLFDIQGLSALHLAAQGRHAQT [E7I],2.2
8,VIDLFDKQGLSALHLAAQGRHAQT [E7K],1.86
9,VIDLFDHQGLSALHLAAQGRHAQT [E7H],2.17
10,VIDLFDPQGLSALHLAAQGRHAQT [E7P],2
11,VIDLFDDQGLSALHLAAQGRHAQT [E7D],2.73
12,VIDLFDNQGLSALHLAAQGRHAQT [E7N],2.36
13,VIDLFDFQGLSALHLAAQGRHAQT [E7F],1.68
14,VIDLFDSQGLSALHLAAQGRHAQT [E7S],2.73
15,VIDLFDMQGLSALHLAAQGRHAQT [E7M],1.1
16,VIDLFDQQGLSALHLAAQGRHAQT [E7Q],2.35
17,VIDLFDWQGLSALHLAAQGRHAQT [E7W],1.98
18,VIDLFDLQGLSALHLAAQGRHAQT [E7L],1.92
19,VIDLFDRQGLSALHLAAQGRHAQT [E7R],1.98
20,VIDLFDTQGLSALHLAAQGRHAQT [E7T],2.45
21,VIDLFDYQGLSALHLAAQGRHAQT [E7Y],1.48
22,VIDLFDCQGLSALHLAAQGRHAQT [E7C],1.73
